Experiment: label from the status in PepcDB records

For “MGKKYSMRRRIWQAVIEIIIGTCLLILLLLGLTFFLRQIGQISGSETIRLSLDSDNLTISDIERDMKHYPYDYIIFDNDTSKILGGHYVKSDVPSFVASKQSSHNITEGEITYTYSSNKHFSVVLRQNSMPEFTNHTLRSISYNQFTYLFFFLGEIILIIFSVYHLIREFSKNFQAVQKIALKMGEITTFPEQEESKIIEFDQVLNNLYSKSKELAFLIEAERHEKHDLSFQVAALSHDVKTPLTVLKGNIELLEMTEVNEQQADFIESMKNSLTVFDKYFNTMISYTKLLNDENDYKATISLEDFLIDLSVELEELSTTYQVDYQLVKKTDLTTFYGNTLALSRALINIFVNACQYAKEGEKIVSLSIYDDEKYLYFEIWNNGHPFSEQAKKNAGKLFFTEDTGRSGKHYGIGLSFAQGVALKHQGNLILSNPQKGGAEVILKIKK”, the protein production was “failed”.
With “MADTGEVQFMKPFISEKSSKSLEIPLGFNEYFPAPFPITVDLLDYSGRSWTVRMKKRGEKVFLTVGWENFVKDNNLEDGKYLQFIYDRDRTFYVIIYGHNMC” the protein production was “not failed”.
In the case of “MLHFAHIFQNKVHTMNITKPFPLPTGYFGIPLGLAALSLAWFHLENLFPAARMVSDVLGIVASAVWILFILMYAYKLRYYFEEVRAEYHSPVRFSFIALIPITTMLVGDILYRWNPLIAEVLIWIGTIGQLLFSTLRVSELWQGGVFEQKSTHPSFYLPAVAANFTSASSLALLGYHDLGYLFFGAGMIAWIIFEPVLLQHLRISSLEPQFRATMGIVLAPAFVCVSAYLSINHGEVDTLAKILWGYGFLQLFFLLRLFPWIVEKGLNIGLWAFSFGLASMANSATAFYHGNVLQGVSIFAFVFSNVMIGLLVLMTIYKLTKGQFFLK”, the protein production is reported as “not failed”.
With “KIDFISDVSCPWCVIGLRALDQALEALGDEVQAQIHFQPFELNPNMPAEGQDIKEHIAEKYGSTPEQIEAIHETIRERGAELGFTFGKGERRIYNTFDAHRLLHWAEQEGKQPALKQALFVAYFSELKDPSSHQTLADVAQKVGLDRLRAQAILDSDEFASEVREAEQLWTSRGITSVPTMVFNDQYAVSGGQPVEVFVSAIRQMLSES” the protein production was “failed”.
With “MLGAVARGGWVYEVHAAGAGTDLYRVSLLEGYQEQRPLSAAESAALPALLPLVHAESALSEMGYFHGVMGSTADTALAYDRFVGHTRWFGGEDGTRLLNRIRTRLQRPGPVRFWNGSSPPTGEDRRAALVP” the protein production was “failed”.
For “MWWSGLASQSKAQETPGRRGLEERKQLIMEIYNSLRSADIASIEFEGPEIAVYIRNPKFIVENENVVKDLARKLRKRIVVRTHPKSRKSMEYTIKFIRENVPPDVGIVDIQFDDVLGEVRVIAEKPGKLMGRGKVFRNLVLAETGWRLEVYRKPLLQSGLLDSVLRHLQRHAEERRRALRDIGERIFRDTLIGTRHVRVVGLGSFGEVGRSAILVDTGESKVLLDAGLSPSGYGPDSYPYYWSPEFRVDELDAVVISHAHLDHVGTLPLLFKYGFRGPVYATPPTRDIMIIVLRDLINLMRKAQGEPPFEPRDVEKALTRLIPVNYNTVTDVAPDIKMTFINAGHILGSSMVHLHIGQGLYNILYTADFKFYRIKNDRSTRLLPPAEYSFQRVEALIMEATYGSKETQPRAEAEEELINLVNKVYKRGGKLLIPVMAVGRGQEILVVLNEALRSGKIPEIPIYVDGMVYEVTAVYTNYPELLVKPIRDRILKQGENPFEGPTTVYVTDHYKRDEAMYSDKPAIILSTSGMMNGGPIVEYFKYLADDPRNALAFVSYQAPGTLGRRLQSGEREIELEMDGGIRRIKVNMEIVSIEGFTGHSTRGELLSFLRRLNPKPRNIVLNHGEPSAIAALAHTVKTGWSKLGFESPPIIEAPENLEGVRLYPRNLKMKLALQHS”, the protein production was “failed”.
For “MKFTQRLSLRVRLTLIFLILASVTWLLSSFVAWKQTTDNVDELFDTQLMLFAKRLSTLDLNEINAADRMAQTPNKLKHGHVDDDALTFAIFTHDGRMVLNDGDNGEDIPYSYQREGFADGQLVGEDDPWRFVWMTSPDGKYRIVVGQEWEYREDMALAIVAGQLIPWLVALPIMLIIMMVLLGRELAPLNKLALALRMRDPDSEKPLNATGVPSEVRPLVESLNQLFARTHAMMVRERRFTSDAAHELRSPLTALKVQTEVAQLSDDDPQARKKALLQLHSGIDRATRLVDQLLTLSRLDSLDNLQDVAEIPLEDLLQSSVMDIYHTAQQAKIDVRLTLNAHGIKRTGQPLLLSLLVRNLLDNGPGVTPEALARIGERFYRPPGQTATGSGLGLSIVQRIAKLHDMNVEFGNAEQGGFEAKVSW”, the protein production was “failed”.
For “MTDIMARFVGYTGKVLPDDVTAKLQDLHKKETSQLADVIFTTMIENQRLAKELDRPSCQDTGVIQFLVECGANFPLIGELEALLRESVIKATIDSPLRHNSVETFDEYNTGKNVGKGTPTVFWEIVPNSDQCSIYTYMAGGGCSLPGKAMVLMPGAGYEGVTRFVLDVMTSYGLNACPPLLVGVGVATSVETAALLSKKALMRPIGSHNDNERAALLEKMLEDGINKIGLGPQGMSGNTSVMGVNIENTARHPSTIGVAVNVGCWSHRKGHIVFDKDLNYTITSHKGVAF”, the protein production was “failed”.
In the case of “MALPRSEDGLVLMWSGGKDAMLALDVLHSQSPRRVGALLTTVTADEERVTMHGTPLSLVERQADALNVPLHVMRVPPQPPNEVYEARLEAALTPLLENGFSTVVAGDLFLDDVRAYREALIESVGATALFPLWGRDTTWLAQRFSTRGYRAVVTAVDTTQLDSSFVGRTYDDSFLEDLPDAVDPCGEKGAFHTFVSDGPPFAASVPVAETGRDTTGRIHTVRLRATGEEA”, the protein production is reported as “failed”.
For “MADIDQASKTEMEAAAFRHLLRHLDEHKDVQNIDLMIQADFCRNCLAKWLMEAATEQGVELDYDGAREYVYGMPFAEWKTLYQKPASEAQLAAFEAKQAARKR”, the protein production was “not failed”.
In the case of “PWQPPADLSGLSIEEVSKSLRFIGLSEDVISFFVTEKIDGNLLVQLTEEILSEDFKLSKLQVKKIMQFING”, the protein production is reported as “not failed”.

From a protein production outcome set (Wang et al. 2014)
